The record followed here is FireProtDB.

“And” between values parts separate entries of the source, which are not always exact repeats. Identical values can stand only once.

B1: Subtilisin-chymotrypsin inhibitor-2A, P01053 (parent)
chain: MSSVEKKPEGVNTGAGDRHNLKTEWPELVGKSVEEAKKVILQDKPEAQIIVLPVGTIVTMEYRIDRVRLFVDKLDNIAQVPRVG
B2: Serine hydroxymethyltransferase, P0A825 (parent)
chain: MLKREMNIADYDAELWQAMEQEKVRQEEHIELIASENYTSPRVMQAQGSQLTNKYAEGYPGKRYYGGCEYVDIVEQLAIDRAKELFGADYANVQPHSGSQANFAVYTALLEPGDTVLGMNLAHGGHLTHGSPVNFSGKLYNIVPYGIDATGHIDYADLEKQAKEHKPKMIIGGFSAYSGVVDWAKMREIADSIGAYLFVDMAHVAGLVAAGVYPNPVPHAHVVTTTTHKTLAGPRGGLILAKGGSEELYKKLNSAVFPGGQGGPLMHVIAGKAVALKEAMEPEFKTYQQQVAKNAKAMVEVFLERGYKVVSGGTDNHLFLVDLVDKNLTGKEADAALGRANITVNKNSVPNDPKSPFVTSGIRVGTPAITRRGFKEAEAKELAGWMCDVLDSINDEAVIERIKGKVLDICARYPVYA
B3: Proteinase inhibitor, Q03026 (parent)
chain: MSASAKLSRMVCLLCGFFSTGISMASSLILLSASDLAGQWTLQQDEAPAICHLELRDSEVAEASGYDLGGDTACLTRWLPSEPRAWRPTPAGIALLERGGLTLMLLGRQGEGDYRVQKGDGGQLVLRRATP
B4: Lipase B, P41365 (parent)
chain: MKLLSLTGVAGVLATCVAATPLVKRLPSGSDPAFSQPKSVLDAGLTCQGASPSSVSKPILLVPGTGTTGPQSFDSNWIPLSTQLGYTPCWISPPPFMLNDTQVNTEYMVNAITALYAGSGNNKLPVLTWSQGGLVAQWGLTFFPSIRSKVDRLMAFAPDYKGTVLAGPLDALAVSAPSVWQQTTGSALTTALRNAGGLTQIVPTTNLYSATDEIVQPQVSNSPLDSSYLFNGKNVQAQAVCGPLFVIDHAGSLTSQFSYVVGRSALRSTTGQARSADYGITDCNPLPANDLTPEQKVAAAALLAPAAAAIVAGPKQNCEPDLMPYARPFAVGKRTCSGIVTP
B5: DNA-binding protein HU 1, P08821 (parent)
chain: MNKTELINAVAEASELSKKDATKAVDSVFDTILDALKNGDKIQLIGFGNFEVRERSARKGRNPQTGEEIEIPASKVPAFKPGKALKDAVAGK
B6: Azurin, P00282 (parent)
chain: MLRKLAAVSLLSLLSAPLLAAECSVDIQGNDQMQFNTNAITVDKSCKQFTVNLSHPGNLPKNVMGHNWVLSTAADMQGVVTDGMASGLDKDYLKPDDSRVIAHTKLIGSGEKDSVTFDVSKLKEGEQYMFFCTFPGHSALMKGTLTLK
B7: Tissue-type plasminogen activator, P00750 (parent)
chain: MDAMKRGLCCVLLLCGAVFVSPSQEIHARFRRGARSYQVICRDEKTQMIYQQHQSWLRPVLRSNRVEYCWCNSGRAQCHSVPVKSCSEPRCFNGGTCQQALYFSDFVCQCPEGFAGKCCEIDTRATCYEDQGISYRGTWSTAESGAECTNWNSSALAQKPYSGRRPDAIRLGLGNHNYCRNPDRDSKPWCYVFKAGKYSSEFCSTPACSEGNSDCYFGNGSAYRGTHSLTESGASCLPWNSMILIGKVYTAQNPSAQALGLGKHNYCRNPDGDAKPWCHVLKNRRLTWEYCDVPSCSTCGLRQYSQPQFRIKGGLFADIASHPWQAAIFAKHRRSPGERFLCGGILISSCWILSAAHCFQERFPPHHLTVILGRTYRVVPGEEEQKFEVEKYIVHKEFDDDTYDNDIALLQLKSDSSRCAQESSVVRTVCLPPADLQLPDWTECELSGYGKHEALSPFYSERLKEAHVRLYPSSRCTSQHLLNRTVTDNMLCAGDTRSGGPQANLHDACQGDSGGPLVCLNDGRMTLVGIISWGLGCGQKDVPGVYTKVTNYLDWIRDNMRP

For orientation: Tm means the temperature at the midpoint of the melting transition.

In one data set the parent is B1. Conditions: Hordeum vulgare; pH 7; 30 °C; GdnHCl; Fluorescence; MOPS 50 mM; structure 2CI2; whole UniProt chain shown.
In the case of I40L, the “ddG of mutation (higher = less stable)” value came to 8.2 kJ/mol, the denaturant m value was found to be 1.92 kcal/mol/M and the unfolding free energy came out at 21.3 kJ/mol. For the variant I40V, the “ddG of mutation (higher = less stable)” value was 4.9 kJ/mol, the denaturant m value amounted to 1.92 kcal/mol/M and the unfolding free energy is 24.6 kJ/mol.

Staying with this data set, now noted: Hordeum vulgare; pH 6.3; 25 °C; GdnHCl; Fluorescence; MES 50 mM; structure 2CI2; whole UniProt chain shown.
Regarding L21M, the unfolding free energy came out at 30.5 kJ/mol.

The data set is the same for the next values; noted with them: Hordeum vulgare; pH 4.2; 50 °C; GdnHCl; Fluorescence; Sodium acetate 50 mM; reversible: yes; structure 2CI2; whole UniProt chain shown.
With R68A, the “ddG of mutation (higher = less stable)” value is 5.86 kJ/mol and the unfolding free energy came out at 17.2 kJ/mol.

In another data set the parent is B2. Conditions: Escherichia coli (strain K12); pH 7.5; 30 °C; Urea; Fluorescence; Tris-HCl 20 mM; structure 1DFO; whole UniProt chain shown.
Take W16Y: the unfolding free energy stood at 15.5 kJ/mol. For W16F W183F, the unfolding free energy was 24.7 kJ/mol. W385F: the unfolding free energy worked out at 16.7 kJ/mol.

The same data set, now with this note: Escherichia coli (strain K12); pH 7.5; 30 °C; Urea; Fluorescence; Tris-HCl 20 mM; transition: 3; structure 1DFO; whole UniProt chain shown.
Turning to W183F W385F, the unfolding free energy is 17.6 kJ/mol and 23 kJ/mol.

Variants of B3 are the subject of the next data set. Conditions: Pseudomonas aeruginosa (strain ATCC 15692 / DSM 22644 / CIP 104116 / JCM 14847 / LMG 12228 / 1C / PRS 101 / PAO1); pH 7.1; 25 °C; GdnHCl; CD; Tris-HCl 50 mM; reversible: yes (75%); structure 2RN4; whole UniProt chain shown.
As to A33P, the “ddG of mutation (higher = less stable)” value was -13.4 kJ/mol and the unfolding free energy was 29.3 kJ/mol. In the case of W40F, the “ddG of mutation (higher = less stable)” value is -4.6 kJ/mol and the unfolding free energy was determined as 20.5 kJ/mol.

Consider D35A, for which the “ddG of mutation (higher = less stable)” value is -11.3 kJ/mol and the unfolding free energy was determined as 27.2 kJ/mol.

Still in this data set, the particulars now being: Pseudomonas aeruginosa (strain ATCC 15692 / DSM 22644 / CIP 104116 / JCM 14847 / LMG 12228 / 1C / PRS 101 / PAO1); pH 7.1; Thermal; CD; sodium phosphate 20 mM; NaCl 0.1 M; reversible: yes (75%); structure 2RN4; whole UniProt chain shown.
Turning to D35A, the Tm amounted to 81.5 °C; the “change of melting temperature, mutant - wild type (higher = more stable)” value (from here on “change of melting temperature, mutant”) is 17.7 °C; the “unfolding enthalpy (van 't Hoff)” value was 354 kJ/mol.

Variants of B4 are the subject of the next data set. Conditions: Pseudozyma antarctica; pH 7; Thermal; CD; Tris-HCl 50 mM; reversible: No; structure 1TCA; whole UniProt chain shown.
V235I: the Tm came out at 58.5 °C and the “change of melting temperature, mutant” value came to 0.8 °C. As to V246D, the Tm worked out at 55.7 °C and the “change of melting temperature, mutant” value is -2 °C. The corresponding values for V235I A306E are 52.1 °C and -5.6 °C.

Staying with this data set, now noted: Pseudozyma antarctica; pH 7; Thermal; Differential Scanning Fluorimetry; HEPES 10mM; structure 1TCA; whole UniProt chain shown.
In the case of A187C K333C, the Tm came out at 55.9 °C and the “change of melting temperature, mutant” value is 1.1 °C.

Consider N194C F329C, for which the Tm was determined as 56.3 °C and the “change of melting temperature, mutant” value turned out to be 1.5 °C. Take Q181C L188C: the Tm worked out at 46.1 °C and the “change of melting temperature, mutant” value was -8.7 °C.

A further data set covers variants of B5. Conditions: Bacillus subtilis (strain 168); pH 7.5; 20 °C; Thermal; CD; Tris/HCl 5 mM; reversible: yes; whole UniProt chain shown.
As for F50W, the unfolding free energy is 36 kJ/mol.

Consider F79W, for which the unfolding free energy was determined as 40 kJ/mol.

The next data set covers variants of B6. Conditions: Pseudomonas aeruginosa (strain ATCC 15692 / DSM 22644 / CIP 104116 / JCM 14847 / LMG 12228 / 1C / PRS 101 / PAO1); pH 7.5; 40 °C; GdnHCl; Fluorescence; Tris Cl 2 mM; reversible: Yes; structure 5AZU; whole UniProt chain shown.
F130S: the “ddG of mutation (higher = less stable)” value was 26.8 kJ/mol and the unfolding free energy turned out to be 9.2 kJ/mol.

With I27S, the “ddG of mutation (higher = less stable)” value came to 26.8 kJ/mol and the unfolding free energy came to 9.2 kJ/mol.

Staying with this data set, now noted: Pseudomonas aeruginosa (strain ATCC 15692 / DSM 22644 / CIP 104116 / JCM 14847 / LMG 12228 / 1C / PRS 101 / PAO1); pH 7; 20 °C; GdnHCl; CD; phosphate 5 mM; reversible: yes; structure 5AZU; whole UniProt chain shown.
For H66G, the denaturant m value is 3.94 kcal/mol/M, the “denaturant midpoint (higher = more stable)” value was 1.1 M and the unfolding free energy was determined as 18.2 kJ/mol.

In a further data set the parent is B7. Conditions: Homo sapiens; pH 4.5; Thermal; CD; Unknown; structure 1PK2; whole UniProt chain shown.
In the case of H264Y R268G, the unfolding free energy turned out to be 14.2 kJ/mol. As for H264Y, the unfolding free energy was 12.1 kJ/mol.

The data set is the same for the next values; noted with them: Homo sapiens; pH 7.4; Thermal; DSC; sodium Phosphate 10 mM; structure 1PML; whole UniProt chain shown.
For W277Y, the Tm worked out at 63.3 °C; the “change of melting temperature, mutant” value was -12.3 °C; the “unfolding enthalpy (calorimetric)” value was determined as 188 kJ/mol.
